In the experiment the target is T1, human claudin-4 (full-length), wild type (human, UniProt O14493 1-209).
T1 construct: also called claudin-4 wild type; WT
T1 sequence (looked up): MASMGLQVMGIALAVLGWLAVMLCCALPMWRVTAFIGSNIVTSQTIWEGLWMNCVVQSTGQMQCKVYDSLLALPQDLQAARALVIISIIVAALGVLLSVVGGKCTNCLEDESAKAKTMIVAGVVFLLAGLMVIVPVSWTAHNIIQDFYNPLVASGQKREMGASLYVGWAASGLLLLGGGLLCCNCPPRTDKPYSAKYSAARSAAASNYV
The experiment is described as follows: pull-down. As to conditions: both partners purified.

B1: glutathione-S-transferase-tagged C-CPE (residues 185′–319′), wild type (domain or fragment)
chain: RCVLTVPSTDIEKEILDLAAATERLNLTDALNSNPAGNLYDWRSSNSYPWTQKLNLHLTITATGQKYRILASKIVDFNIYSNNFNNLVKLEQSLGDGVKDHYVDISLDAGQYVLVMKANSSYSGNYPYSILFQKF
As to B1, the binding result is recorded as “binds”.

The values above are taken from publication PMC5028891 (Scientific Reports, 2016).
